Measurements taken from patent publication US20140193333A1 (OXFORD BIOTHERAPEUTICS, published 2014).

Target: T1, ADP-ribosyl cyclase 2 (BST1), human, cell-surface (human, UniProt Q10588 33-293)
T1 construct: Endogenous BST1 on A549, H226 and U937 cells and on blood cells of AML patients; also called CD157; Bone marrow stromal antigen 1
T1 sequence: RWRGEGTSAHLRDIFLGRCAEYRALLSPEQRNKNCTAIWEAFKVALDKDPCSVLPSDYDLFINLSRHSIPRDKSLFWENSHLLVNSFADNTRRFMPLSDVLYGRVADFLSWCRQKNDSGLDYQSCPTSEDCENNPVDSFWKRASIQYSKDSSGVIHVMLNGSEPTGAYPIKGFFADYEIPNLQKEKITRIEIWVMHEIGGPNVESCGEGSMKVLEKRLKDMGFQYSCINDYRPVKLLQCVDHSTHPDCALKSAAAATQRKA
Assay: flow cytometry on BST1-expressing A549 and H226 cells
Description: The specificity of antibodies against the BST1 selected in Example 6 was also tested by flow cytometry. To test the ability of the antibodies to bind to the cell surface BST1 protein, the antibodies were incubated with the BST1-expressing cells, H226 (human lung squamous carcinoma) and A549 (human lung adenocarinoma). Cells were washed in FACS buffer (DPBS, 2% FBS), centrifuged and resuspended in 100 μl of the diluted primary BST1 antibody (also diluted in FACS buffer). The antibody-A549 complex and antibody-H226 complex were incubated on ice for 60 min and then washed twice with FACS buffer as described above. The cell-antibody pellet was resuspended in 100 μl of the diluted secondary antibody (also diluted in FACS buffer) and incubated on ice for 60 min on ice. The pellet was washed as before and resuspended in 200 μl FACS buffer. The samples were loaded onto the BD FACScanto II flow sytometer and the data analyzed using the BD FACSdiva software. The binding of BST1_[…] and BST1_A2 to BST1 expressed on A549 and H226 cells were analysed using flow cytometry.

B1: BST1_A1 anti-BST1 monoclonal antibody (Fab, V domains shown)
VH: QVKLQQSGAELVRPGSSVKISCKASGYAFSNSWINWVKQRPGQGLEWIGQIYPGDYDTNYNGKFKGKATLTADYSSSTAYMQLNSLTSEDSAVYFCARGGSIYYGNLGFFDVWGAGTTVTVSS
VL: EMVLTQSPAIMSTSLGERVTMTCTASSRVSSSYLHWYQQKPGSSPKLWIYSTSNLASGVPARFSGSGSGTSYSLTISSMEAEDAATYYCHQYHRSPYTFGGGTKLEIKR
B1: binds.
